The target of data set [1] is T1, kinase-dead PKR (K296R), recombinant His-tagged full-length protein kinase R (human), P19525.
T1 chain: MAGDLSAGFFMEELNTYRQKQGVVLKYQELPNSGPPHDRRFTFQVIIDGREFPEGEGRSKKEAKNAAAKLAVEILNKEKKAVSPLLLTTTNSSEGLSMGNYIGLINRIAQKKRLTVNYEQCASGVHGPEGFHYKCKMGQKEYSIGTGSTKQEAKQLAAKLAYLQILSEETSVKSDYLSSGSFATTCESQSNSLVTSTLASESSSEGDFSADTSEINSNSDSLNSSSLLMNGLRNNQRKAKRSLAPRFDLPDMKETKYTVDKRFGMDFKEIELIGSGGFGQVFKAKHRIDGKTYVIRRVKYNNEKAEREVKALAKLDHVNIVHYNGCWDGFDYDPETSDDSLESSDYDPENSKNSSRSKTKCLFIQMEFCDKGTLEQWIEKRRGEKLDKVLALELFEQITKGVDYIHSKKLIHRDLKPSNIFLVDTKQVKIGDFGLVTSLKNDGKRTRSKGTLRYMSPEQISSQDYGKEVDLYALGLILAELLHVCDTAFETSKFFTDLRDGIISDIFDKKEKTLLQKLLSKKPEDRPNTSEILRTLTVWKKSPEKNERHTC
The data set is described as follows: liquid chromatography; recombinant PKR isolated during purification as separate monomer and dimer species. The conditions noted are these: remark: other sources report otherwise.

Data set [2] deals with the molecule itself. Described as above.

B1: kinase-dead PKR (K296R), recombinant His-tagged full-length protein kinase R, P19525 1-551 (enzyme)
chain: MAGDLSAGFFMEELNTYRQKQGVVLKYQELPNSGPPHDRRFTFQVIIDGREFPEGEGRSKKEAKNAAAKLAVEILNKEKKAVSPLLLTTTNSSEGLSMGNYIGLINRIAQKKRLTVNYEQCASGVHGPEGFHYKCKMGQKEYSIGTGSTKQEAKQLAAKLAYLQILSEETSVKSDYLSSGSFATTCESQSNSLVTSTLASESSSEGDFSADTSEINSNSDSLNSSSLLMNGLRNNQRKAKRSLAPRFDLPDMKETKYTVDKRFGMDFKEIELIGSGGFGQVFKAKHRIDGKTYVIRRVKYNNEKAEREVKALAKLDHVNIVHYNGCWDGFDYDPETSDDSLESSDYDPENSKNSSRSKTKCLFIQMEFCDKGTLEQWIEKRRGEKLDKVLALELFEQITKGVDYIHSKKLIHRDLKPSNIFLVDTKQVKIGDFGLVTSLKNDGKRTRSKGTLRYMSPEQISSQDYGKEVDLYALGLILAELLHVCDTAFETSKFFTDLRDGIISDIFDKKEKTLLQKLLSKKPEDRPNTSEILRTLTVWKKSPEKNERHTC
For orientation: stoichiometry N means the number of molecules, sites or subunits per partner or assembly. For B1, the stoichiometry N in data set [1] was 2.

B2: PKR K296R-S33E-T42E, recombinant His-tagged full-length protein kinase R (enzyme, human, UniProt P19525 1-551, looked up)
chain: MAGDLSAGFFMEELNTYRQKQGVVLKYQELPNEGPPHDRRFEFQVIIDGREFPEGEGRSKKEAKNAAAKLAVEILNKEKKAVSPLLLTTTNSSEGLSMGNYIGLINRIAQKKRLTVNYEQCASGVHGPEGFHYKCKMGQKEYSIGTGSTKQEAKQLAAKLAYLQILSEETSVKSDYLSSGSFATTCESQSNSLVTSTLASESSSEGDFSADTSEINSNSDSLNSSSLLMNGLRNNQRKAKRSLAPRFDLPDMKETKYTVDKRFGMDFKEIELIGSGGFGQVFKAKHRIDGKTYVIRRVKYNNEKAEREVKALAKLDHVNIVHYNGCWDGFDYDPETSDDSLESSDYDPENSKNSSRSKTKCLFIQMEFCDKGTLEQWIEKRRGEKLDKVLALELFEQITKGVDYIHSKKLIHRDLKPSNIFLVDTKQVKIGDFGLVTSLKNDGKRTRSKGTLRYMSPEQISSQDYGKEVDLYALGLILAELLHVCDTAFETSKFFTDLRDGIISDIFDKKEKTLLQKLLSKKPEDRPNTSEILRTLTVWKKSPEKNERHTC
notes: protein kinase R (PKR), human, full-length molecule with K296R and the phosphor-mimetic S33E and T42E; also called triple mutant; source: isolated by liquid chromatography as monomer and as dimer
Turning to B2, in data set [2], the “stoichiometry N” value turned out to be 2.

(Values after article PMC5345052, “Auto-phosphorylation Represses Protein Kinase R Activity” (Scientific Reports, 2017).)
